# Reference: US20140329761A1, “PREVENTION AND TREATMENT OF ACUTE INFLAMMATORY CONDITIONS” (The University of Queensland, priority 2011, published 2014)
# Where no end group is shown, it is not given here. [ ]: non-standard residue; d: D form. Cha = N[C@@H](CC1CCCCC1)C(=O)O
# Assays:
# C3aR [1] = biological target: T1, C3aR (Homo sapiens, UniProt Q16581); details: cited from earlier work
# T1 sequence (Q16581 1-482): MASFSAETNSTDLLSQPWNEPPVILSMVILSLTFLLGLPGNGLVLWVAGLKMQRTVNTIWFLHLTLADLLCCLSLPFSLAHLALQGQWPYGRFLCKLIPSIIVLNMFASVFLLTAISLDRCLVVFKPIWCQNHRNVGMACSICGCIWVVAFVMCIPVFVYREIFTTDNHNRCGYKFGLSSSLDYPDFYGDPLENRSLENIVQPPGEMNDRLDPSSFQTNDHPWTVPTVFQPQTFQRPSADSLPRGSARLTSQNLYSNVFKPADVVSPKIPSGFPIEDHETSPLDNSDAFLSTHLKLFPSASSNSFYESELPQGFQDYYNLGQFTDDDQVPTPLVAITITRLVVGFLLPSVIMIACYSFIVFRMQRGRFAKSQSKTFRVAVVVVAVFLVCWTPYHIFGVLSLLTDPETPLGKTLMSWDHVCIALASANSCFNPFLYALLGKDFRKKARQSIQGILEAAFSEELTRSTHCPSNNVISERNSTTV
# C3aR [2] = biological target: T2, C3aR (Mus musculus, UniProt O09047); assay: Mouse intestinal I/R injury: plasma cytokines (Cytometric Bead Array); format: in vivo; details: WT ischemia/reperfusion mice, 2.5 hours after ischemia
# T2 construct: endogenous in cells; host or cells: live wild-type C57BL/6 mice (in vivo; receptor on neutrophils and other bone-marrow-derived cells)
# T2 sequence (O09047 1-477): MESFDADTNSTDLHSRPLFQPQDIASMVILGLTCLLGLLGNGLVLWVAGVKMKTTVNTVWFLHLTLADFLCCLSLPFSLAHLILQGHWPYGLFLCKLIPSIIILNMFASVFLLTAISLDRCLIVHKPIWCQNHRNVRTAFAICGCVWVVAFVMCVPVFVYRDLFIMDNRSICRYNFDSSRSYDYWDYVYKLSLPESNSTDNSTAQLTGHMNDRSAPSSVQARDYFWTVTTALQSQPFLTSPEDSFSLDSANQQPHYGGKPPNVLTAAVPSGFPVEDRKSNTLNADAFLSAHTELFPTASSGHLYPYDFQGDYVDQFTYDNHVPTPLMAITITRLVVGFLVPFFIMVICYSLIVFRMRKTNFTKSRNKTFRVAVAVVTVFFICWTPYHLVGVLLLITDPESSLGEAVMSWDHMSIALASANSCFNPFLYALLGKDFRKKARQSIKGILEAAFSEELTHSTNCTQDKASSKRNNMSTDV
# Protocol: (§1) Male C57BL/6 or C3aR knockout mice were fasted for around 12 hours before experimentation. Mice were anesthetized with 2% isoflurane and oxygen at 2 L/minute throughout the experiment. […] An immediate check of complete shut-off of the blood supply to the small intestine was confirmed visually (ischemia). The abdomen was then covered with moist gauze. After thirty minutes of the ischemia episode, the ligature was removed and restoration of blood supply to the intestine was confirmed visually (reperfusion). The midline laparotomy incision was then closed. Mice were administrated with saline (100 μL) intraperitoneally every hour to compensate for fluid loss. The same procedure was performed on sham-operated mice including a loop of ligature around their arteries; however the arteries were not occluded. After two and half hours of the reperfusion episode, mice were sacrificed, and tissues and blood were harvested. Their small intestines (0.5-1 cm pieces) were snap-frozen in liquid nitrogen and stored at −80° C. for later assays. […] The blood was centrifuge at 14,000 rpm for 15 min at 4° C., and the resulting plasma stored at −80° C. […]
# Cytokines were measured using a Cytometric Bead Array from Becton Dickinson (flow cytometry that allows for the quantification of multiple cytokines simultaneously), using plasma isolated from mice at termination.
# C3aR [3] = biological target: T2, C3aR; assay: Mouse intestinal I/R injury: myeloperoxidase (MPO) activity of small intestine; format: in vivo; details: WT mice, 0.01 mg/kg i.v. pre-treatment, compared with vehicle pre-treated WT mice
# Protocol: as §1
# Snap-frozen ileum (1 cm), excised at sacrifice, was briefly cleaned with ice-cold PBS and weighed. […] MPO activity was assayed spectrophotometrically at the absorbance 460 nm. […] The absorbance was measured using a Rainbow 96-well plate reader after 20 minutes.
# C3aR [4] = biological target: T2, C3aR; assay: Mouse intestinal I/R injury: histopathology of small intestine; format: in vivo; details: WT mice, 0.01 mg/kg i.v. pre-treatment, compared with vehicle pre-treated WT mice; scale 0-5
# Protocol: (§2) Male C57BL/6 or C3aR knockout mice were fasted for around 12 hours before experimentation. Mice were anesthetized with 2% isoflurane and oxygen at 2 L/minute throughout the experiment. […] An immediate check of complete shut-off of the blood supply to the small intestine was confirmed visually (ischemia). The abdomen was then covered with moist gauze. After thirty minutes of the ischemia episode, the ligature was removed and restoration of blood supply to the intestine was confirmed visually (reperfusion). The midline laparotomy incision was then closed. Mice were administrated with saline (100 μL) intraperitoneally every hour to compensate for fluid loss. The same procedure was performed on sham-operated mice including a loop of ligature around their arteries; however the arteries were not occluded. After two and half hours of the reperfusion episode, mice were sacrificed, and tissues and blood were harvested. Their small intestines (0.5-1 cm pieces) were snap-frozen in liquid nitrogen and stored at −80° C. for later assays. […]
# At sacrifice, a section of ileum (0.5 cm) was removed and fixed in 4% paraformaldehyde in phosphate buffered saline (PBS) for at least 72 hours. […] Histological assessment was carried out in a blinded fashion using light microscopy at 40× magnification, and scored for severity on a scale of 0-5. […]
# C3aR [5] = biological target: T2, C3aR; assay: Mouse intestinal I/R injury: circulating neutrophils (white blood cell differentials); format: in vivo, mice; details: WT mice, I/R induced intestinal injury, 0.01 mg/kg i.v. 10 minutes prior to ischemia, compared with vehicle pre-treated WT mice
# Protocol: as §2
# (§3) To determine white blood cell populations, cell differentials were employed using blood smears and The Kwik-Diff Staining System (Thermo Shandon). […] Samples were counted in triplicate, with a total 100 white blood cells per slide counted, and the number of neutrophils expressed as a percentage of total white blood cells.
# C3aR [6] = assay: as above; format: in vivo, mice; details: C3aR-/- mice, gut ischemia/reperfusion, 0.01 mg/kg i.v. 10 minutes prior to ischemia
# Protocol: as §2, §3
# C3aR [7] = biological target: T2, C3aR; assay: Mouse intestinal I/R injury: alkaline phosphatase (ALP) measurement; format: in vivo; details: WT mice, I/R induced intestinal injury, 0.01 mg/kg i.v. pre-treatment, compared with vehicle pre-treated WT mice
# Protocol: as §2
# Intestinal ALP concentrations were measured according to the manufacturer's instructions (ALP reagents; Thermo Scientific, USA). […] The absorbance at 405 was immediately measured in a kinetic manner for 10 minutes at 37° C. The results were calculated as follows: Activity in U/L=ΔAbs/min×Factor.
# C3aR [8] = biological target: T2, C3aR; assay: Mouse spinal cord injury (SCI): circulating white blood cell populations and total WBC counts; format: in vivo; details: SCI mice, 4 doses of 1 mg/kg s.c. every 6 hours, 24 hours post-injury
# Protocol: Experimental mice were anaesthetized using Zoletil (50 mg/kg) and xylazine (10 mg/kg). Next, a dorsal laminectomy was performed on the 9th thoracic vertebra to expose the underlying spinal cord. Mice were then subjected to a force-controlled, moderate-severe (70 kdyne) contusion injury of the spinal cord using the Infinite Horizon impactor device (Ghasemlou et al., 2005). Post-operatively, mice were given antibiotics for 5 days (Gentamycin; 1 mg/kg) as well as a single dose of Hartmann's solution (1 ml) to prevent dehydration and to compensate for loss of bodily fluids. Bladders of spinal cord-injured mice were voided manually twice daily. […]
# Blood samples were collected from experimental animals either via retro-orbital eye bleeds or heart punctures at the time of sacrifice. […] Next, the number of white blood cells per set sample volume was determined using the Countess automated cell counter (Invitrogen) as per manufacturer's instructions. […]
# These experiments were performed to test whether C3aR can be used as a therapeutic target to improve the outcome from neurotraumatic events (neuronal death and axonal degeneration at sites of SCI are inevitably linked to neuroinflammation). […] The effect of EP67 treatment on circulating white blood cell populations after SCI relative to saline-treated controls was assessed via flow cytometry and total WBC counts as detailed above.
substance,measurement,setting,value
FLTChaAR (FLT[Cha]AR),functional antagonism at C3aR,"C3aR [1]; literature (Scully et al. 2010), human C3aR",functional antagonist of both C3a and the short peptide agonist FWTLAR
WWGKKYRASKLGLAR (A synthetic EP141),IL-6 levels in plasma,C3aR [2],no significant change
same,C3aR agonist activity,C3aR [1]; literature (Ember et al. 1991; Scully et al. 2010; Denonne et al. 2007),highly potent and selective C3aR agonist
same,I/R induced MPO activity of the small intestine,C3aR [3],significantly (P<0.05) lower
same,I/R induced intestinal injury (histopathological scores of the small intestine),C3aR [4],significantly reduced
same,percentage of circulating neutrophils,C3aR [5],significantly (P<0.02) lower
same,effect on circulating neutrophils (neutrophil mobilization) in C3aR knockout mice,C3aR [6],inactive
same,plasma ALP levels,C3aR [7],significantly (P<0.02) reduced
YSFKDMP(MeL)aR [EP67],reduction in the blood granulocyte number,C3aR [8]; compared to vehicle-treated control mice with SCI,30%
same,total WBC count,"C3aR [8]; relative to vehicle-treated controls, p=0.07, data not shown",trend towards a decrease
